From patent US20140072613A1, “Compositions and Methods for Treating Cutaneous Scarring” (priority 2012, published 2014)

Assays:
Test in all cases: biochemical
Format in all cases: biochemical
266 human kinases [1] = biological target: 266 human kinases (Homo sapiens, UniProt P08631); conditions: 100 μM
In short: (§1)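 A filter-capture radiometric assay: phosphorylated cationic substrate binds an anionic membrane and is scintillation-counted, with values referenced to full-activity control.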

266 human kinases [2] = biological target: 266 human kinases (Homo sapiens, UniProt P23443); conditions: p70S6K(h); 100 μM
In short: as §1

266 human kinases [3] = biological target: 266 human kinases (Homo sapiens, UniProt P48730); conditions: CK1δ(h); 100 μM
In short: as §1

266 human kinases [4] = biological target: 266 human kinases (Homo sapiens, UniProt P51955); conditions: NEK2(h); 100 μM
In short: as §1

266 human kinases [5] = biological target: 266 human kinases (Homo sapiens, UniProt Q13131); conditions: AMPKα1(h); 100 μM
In short: as §1

266 human kinases [6] = biological target: T1, 266 human kinases (Homo sapiens, UniProt Q15831); conditions: LKB1(h); 100 μM
T1 sequence (Q15831 1-433): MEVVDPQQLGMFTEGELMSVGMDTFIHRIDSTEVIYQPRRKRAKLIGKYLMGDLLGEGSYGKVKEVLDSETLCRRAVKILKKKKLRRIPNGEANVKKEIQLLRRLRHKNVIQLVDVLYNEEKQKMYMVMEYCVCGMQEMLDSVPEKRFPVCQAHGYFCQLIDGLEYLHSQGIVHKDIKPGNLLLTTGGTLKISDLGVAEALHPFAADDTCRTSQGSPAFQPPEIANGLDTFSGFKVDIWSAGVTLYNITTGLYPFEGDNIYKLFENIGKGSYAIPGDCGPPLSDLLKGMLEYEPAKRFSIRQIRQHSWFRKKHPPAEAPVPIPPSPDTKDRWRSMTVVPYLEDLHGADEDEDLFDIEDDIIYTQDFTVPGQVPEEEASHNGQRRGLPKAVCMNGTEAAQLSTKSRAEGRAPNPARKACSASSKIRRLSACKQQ
In short: as §1

266 human kinases [7] = biological target: T2, 266 human kinases (Homo sapiens, UniProt Q8IYT8); conditions: ULK2(h); 100 μM
T2 sequence (Q8IYT8 1-1036): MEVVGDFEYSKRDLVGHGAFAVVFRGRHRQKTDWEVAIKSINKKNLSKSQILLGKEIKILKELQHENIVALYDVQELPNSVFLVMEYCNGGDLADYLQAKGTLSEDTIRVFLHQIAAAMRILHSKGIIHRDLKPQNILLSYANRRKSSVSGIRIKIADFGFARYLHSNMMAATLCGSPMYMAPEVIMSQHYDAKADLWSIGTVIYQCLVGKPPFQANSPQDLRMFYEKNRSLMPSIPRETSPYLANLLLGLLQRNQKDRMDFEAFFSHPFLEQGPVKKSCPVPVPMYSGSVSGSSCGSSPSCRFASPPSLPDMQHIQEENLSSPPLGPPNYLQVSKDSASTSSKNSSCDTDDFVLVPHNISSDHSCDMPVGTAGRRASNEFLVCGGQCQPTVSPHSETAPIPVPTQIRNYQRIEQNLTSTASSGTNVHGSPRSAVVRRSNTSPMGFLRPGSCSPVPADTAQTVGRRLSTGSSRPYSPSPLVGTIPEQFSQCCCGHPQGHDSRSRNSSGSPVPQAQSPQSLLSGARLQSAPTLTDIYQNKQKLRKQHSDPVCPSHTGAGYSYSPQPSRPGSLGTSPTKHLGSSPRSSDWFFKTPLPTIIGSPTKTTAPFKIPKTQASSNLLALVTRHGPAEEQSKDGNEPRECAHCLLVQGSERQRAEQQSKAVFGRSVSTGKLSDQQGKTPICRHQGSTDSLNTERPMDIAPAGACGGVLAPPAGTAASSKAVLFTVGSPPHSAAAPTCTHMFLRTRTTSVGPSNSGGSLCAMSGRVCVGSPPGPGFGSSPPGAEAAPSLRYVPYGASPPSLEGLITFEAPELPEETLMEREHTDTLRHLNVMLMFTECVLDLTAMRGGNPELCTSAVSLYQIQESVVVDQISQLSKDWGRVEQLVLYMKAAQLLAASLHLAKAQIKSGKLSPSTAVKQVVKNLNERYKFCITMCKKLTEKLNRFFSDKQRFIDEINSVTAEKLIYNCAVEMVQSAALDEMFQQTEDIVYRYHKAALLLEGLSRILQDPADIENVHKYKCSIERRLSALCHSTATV
In short: as §1

266 human kinases [8] = biological target: 266 human kinases (Homo sapiens, UniProt Q8TDX7); conditions: NEK7(h); 100 μM
In short: as §1

266 human kinases [9] = biological target: 266 human kinases (Homo sapiens, UniProt Q9BYT3); conditions: STK33(h); 100 μM
In short: as §1

Chain of 266 human kinases (Homo sapiens, UniProt P08631) (P08631 whole entry): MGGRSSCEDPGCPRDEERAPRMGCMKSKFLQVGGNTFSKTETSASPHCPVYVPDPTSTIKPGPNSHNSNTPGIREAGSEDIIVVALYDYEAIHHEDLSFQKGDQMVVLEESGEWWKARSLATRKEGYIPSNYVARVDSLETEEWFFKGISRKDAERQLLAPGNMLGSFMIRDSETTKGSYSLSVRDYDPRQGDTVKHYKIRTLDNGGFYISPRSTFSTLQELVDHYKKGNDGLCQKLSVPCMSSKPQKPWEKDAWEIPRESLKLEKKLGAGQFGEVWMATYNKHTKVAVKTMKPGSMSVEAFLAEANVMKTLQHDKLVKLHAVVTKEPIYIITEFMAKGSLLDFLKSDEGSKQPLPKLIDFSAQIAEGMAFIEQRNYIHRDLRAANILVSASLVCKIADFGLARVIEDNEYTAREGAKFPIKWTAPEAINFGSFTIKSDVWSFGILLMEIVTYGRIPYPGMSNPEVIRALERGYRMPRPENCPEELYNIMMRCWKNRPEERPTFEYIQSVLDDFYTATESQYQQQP
Chain of 266 human kinases (Homo sapiens, UniProt P51955) (P51955 whole entry): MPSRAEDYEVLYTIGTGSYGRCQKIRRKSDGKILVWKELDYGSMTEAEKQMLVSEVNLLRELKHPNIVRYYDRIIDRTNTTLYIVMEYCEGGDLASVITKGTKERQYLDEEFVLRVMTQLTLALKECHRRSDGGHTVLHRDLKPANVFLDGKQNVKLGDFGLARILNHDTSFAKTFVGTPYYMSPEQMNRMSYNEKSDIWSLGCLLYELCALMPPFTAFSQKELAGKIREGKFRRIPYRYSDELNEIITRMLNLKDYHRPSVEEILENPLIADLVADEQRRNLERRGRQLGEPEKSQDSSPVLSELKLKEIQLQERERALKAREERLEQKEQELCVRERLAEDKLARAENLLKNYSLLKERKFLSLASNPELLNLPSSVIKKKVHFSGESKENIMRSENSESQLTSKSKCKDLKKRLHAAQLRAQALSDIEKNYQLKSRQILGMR
Chain of 266 human kinases (Homo sapiens, UniProt Q9BYT3) (Q9BYT3 whole entry): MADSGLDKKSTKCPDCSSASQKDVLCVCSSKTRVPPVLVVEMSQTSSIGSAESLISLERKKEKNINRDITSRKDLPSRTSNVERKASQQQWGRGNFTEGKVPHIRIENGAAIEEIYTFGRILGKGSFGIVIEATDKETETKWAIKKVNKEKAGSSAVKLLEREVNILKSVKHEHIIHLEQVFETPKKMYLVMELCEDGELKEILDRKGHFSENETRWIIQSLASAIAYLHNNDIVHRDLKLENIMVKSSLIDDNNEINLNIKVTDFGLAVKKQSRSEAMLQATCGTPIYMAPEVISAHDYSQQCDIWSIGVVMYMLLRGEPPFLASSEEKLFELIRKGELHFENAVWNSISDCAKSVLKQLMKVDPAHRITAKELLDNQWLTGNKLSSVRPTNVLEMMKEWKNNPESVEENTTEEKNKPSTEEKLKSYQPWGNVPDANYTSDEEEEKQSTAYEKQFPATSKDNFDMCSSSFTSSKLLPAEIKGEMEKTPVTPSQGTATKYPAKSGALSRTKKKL
Chain of 266 human kinases (Homo sapiens, UniProt Q13131) (Q13131 whole entry): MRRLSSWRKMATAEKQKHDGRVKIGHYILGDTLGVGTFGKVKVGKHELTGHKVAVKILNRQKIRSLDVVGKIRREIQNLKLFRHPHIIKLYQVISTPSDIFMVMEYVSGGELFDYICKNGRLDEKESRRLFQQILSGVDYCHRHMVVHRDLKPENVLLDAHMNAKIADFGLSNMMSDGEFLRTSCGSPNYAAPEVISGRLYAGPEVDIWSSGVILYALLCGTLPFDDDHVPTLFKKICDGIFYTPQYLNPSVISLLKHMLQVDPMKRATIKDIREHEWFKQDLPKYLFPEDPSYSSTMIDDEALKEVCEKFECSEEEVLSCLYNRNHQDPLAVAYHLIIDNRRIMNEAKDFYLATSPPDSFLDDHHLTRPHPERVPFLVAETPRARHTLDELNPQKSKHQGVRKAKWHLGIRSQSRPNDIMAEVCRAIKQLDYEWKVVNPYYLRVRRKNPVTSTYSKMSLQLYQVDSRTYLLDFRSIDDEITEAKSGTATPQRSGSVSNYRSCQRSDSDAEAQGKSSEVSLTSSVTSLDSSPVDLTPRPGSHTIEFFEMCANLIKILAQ
Chain of 266 human kinases (Homo sapiens, UniProt Q8TDX7) (Q8TDX7 whole entry): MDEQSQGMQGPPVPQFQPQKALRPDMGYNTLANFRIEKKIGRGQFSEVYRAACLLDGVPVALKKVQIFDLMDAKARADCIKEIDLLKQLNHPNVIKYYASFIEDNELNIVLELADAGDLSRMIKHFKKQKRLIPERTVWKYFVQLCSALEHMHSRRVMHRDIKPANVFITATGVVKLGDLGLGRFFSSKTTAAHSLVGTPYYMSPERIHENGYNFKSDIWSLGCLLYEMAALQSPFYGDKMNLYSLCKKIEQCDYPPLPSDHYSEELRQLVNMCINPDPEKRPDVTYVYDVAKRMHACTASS
Chain of 266 human kinases (Homo sapiens, UniProt P23443) (P23443 whole entry): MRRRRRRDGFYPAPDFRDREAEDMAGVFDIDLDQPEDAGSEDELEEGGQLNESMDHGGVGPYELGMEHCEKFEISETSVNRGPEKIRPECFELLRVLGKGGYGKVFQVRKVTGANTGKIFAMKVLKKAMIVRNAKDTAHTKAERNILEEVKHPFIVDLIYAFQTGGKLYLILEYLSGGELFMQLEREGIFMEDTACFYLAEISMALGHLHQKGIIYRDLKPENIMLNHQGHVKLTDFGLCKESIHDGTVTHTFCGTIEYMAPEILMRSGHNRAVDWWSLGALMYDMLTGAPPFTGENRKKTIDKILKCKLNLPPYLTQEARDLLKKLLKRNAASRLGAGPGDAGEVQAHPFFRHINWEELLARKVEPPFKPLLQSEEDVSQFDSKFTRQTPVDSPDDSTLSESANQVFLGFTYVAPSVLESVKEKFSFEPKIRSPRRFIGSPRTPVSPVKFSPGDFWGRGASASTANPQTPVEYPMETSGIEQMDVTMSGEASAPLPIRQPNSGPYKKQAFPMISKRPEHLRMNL
Chain of 266 human kinases (Homo sapiens, UniProt P48730) (P48730 whole entry): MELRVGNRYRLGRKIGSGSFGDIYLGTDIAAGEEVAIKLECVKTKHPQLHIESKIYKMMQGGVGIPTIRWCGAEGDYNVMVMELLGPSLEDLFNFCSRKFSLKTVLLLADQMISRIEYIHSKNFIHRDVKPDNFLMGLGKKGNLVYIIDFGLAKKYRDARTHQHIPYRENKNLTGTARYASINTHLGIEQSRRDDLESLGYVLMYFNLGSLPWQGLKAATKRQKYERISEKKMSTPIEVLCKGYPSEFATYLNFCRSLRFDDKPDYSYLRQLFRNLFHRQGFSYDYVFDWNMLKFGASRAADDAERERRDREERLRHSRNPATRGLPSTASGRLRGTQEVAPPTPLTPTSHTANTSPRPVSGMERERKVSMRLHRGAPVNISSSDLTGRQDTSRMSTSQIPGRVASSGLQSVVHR

Row | Sequence | % activity (266 human kinases [1]; Hck(h) activated) [%] | % activity (266 human kinases [1]; Hck(h)) [%] | % activity (266 human kinases [2]) [%] | % activity (266 human kinases [3]) [%] | % activity (266 human kinases [4]) [%] | % activity (266 human kinases [5]) [%] | % activity (266 human kinases [6]) [%] | % activity (266 human kinases [7]) [%] | % activity (266 human kinases [8]) [%] | % activity (266 human kinases [9]) [%]
1 | HRRIKAWLKKIKALARQLGVAA (mammal) [MMI-0500] | 67 | 78 | 3 | 78 | 0 | 35 | 51 | 124 | 89 | 16
2 | YARAAARQARAKALNRQLGVA (mammal) [MMI-0200] | 100 | – | 84 | 92 | 97 | 108 | 99 | 132 | 96 | 98
